Results: US20250257149A1 (GLYCOTOPE, published 2025)

Assays:
[1] = target: T1, TA-MUC1 (tumor-associated MUC1) on human tumor cell lines (human, UniProt P15941 24-1255, aberrant tumor-associated O-glycosylation); assay: flow cytometry on HSC-4 cells, detection with PE-conjugated goat anti-human IgG
T1 construct: whole, on cells; also called cellular TA-MUC1; cell surface TA-MUC1
Description: (§1) N54Q and N54D were transiently expressed and purified by protein A chromatography. Binding of the two variants to cell surface TA-MUC1 was compared to PM with Fab glycosylation using two different carcinoma cell lines. The tongue squamous cell carcinoma line HSC-4 expresses TA-MUC1 to a medium degree and the ovarian carcinoma cell line CaOV-3 to a high degree. Tumor cells were incubated with antibodies in serial dilutions and bound antibodies were detected using a Phycoerythrin-conjugated goat anti-human IgG (heavy and light chain) antibody. A human IgG control was included to control for background staining. Binding was analyzed by flow cytometry.

[2] = target: T1, TA-MUC1 (tumor-associated MUC1) on …; assay: saturation binding of 111In-labelled antibody on ZR-75-1 cells
Description: (§2) Binding of the Fab-deglycosylated version of the MUC1-specific antibody PankoMab (PM-N54Q) on TA-MUC-1 positive human tumor cell lines was evaluated using radiolabeled antibodies by saturated binding analysis on the human mamma carcinoma cell lines ZR-75-1 and MCF-7 in comparison to Fab-glycosylated PankoMab-GEX®. The antibodies were chelated with a 12-fold molar excess of p-SCN-Benzyl-DTPA in 50 mM sodium carbonate, 150 mM NaCl, pH 8.7, for 2 h at 37° C., followed by over-night incubation at 2-8° C. Free chelator was removed over desalting columns and dead-end filtration (50 kDa cut-off, 6× buffer exchange to PBS). The chelated antibodies were radiolabeled with carrier-free ¹¹¹In (2 μCi/μg antibody) for 1 h at 37° C. in 6 mM phosphate, 1.6 mM KCl, 80 mM NaCl, 0.2 M Na-acetate, 0.1 M HCl. The preparations were neutralized by addition of 8-9 fold volume of 10× concentrated PBS. About 1/50 volume of fetal bovine serum were added to the neutralized labelled antibody preparation. Per cell binding approach 1*10⁶ cells were used. Several concentrations of labelled antibodies were added to the pelleted cells (30-1000 ng/200 μL in 1% BSA/PBS). The resuspended cell-antibody mixtures were measured in a gamma-counter and incubated 1 h at 4° C. […] The cell pellet was then measured for bound ¹¹¹In-labelled antibody in a gamma counter. […]

[3] = target: T1, TA-MUC1 (tumor-associated MUC1) on …; assay: flow cytometry on CaOV-3 cells, detection with PE-conjugated goat anti-human IgG
Description: as §1

[4] = target: T1, TA-MUC1 (tumor-associated MUC1) on …; assay: saturation binding of 111In-labelled antibody on MCF-7 cells
Description: as §2

[5] = target: T1, TA-MUC1 (tumor-associated MUC1) on …; assay: saturation binding of 111In-labelled antibody on ZR-75-1 and MCF-7 cells
Description: as §2

T1 sequence (P15941 24-1255): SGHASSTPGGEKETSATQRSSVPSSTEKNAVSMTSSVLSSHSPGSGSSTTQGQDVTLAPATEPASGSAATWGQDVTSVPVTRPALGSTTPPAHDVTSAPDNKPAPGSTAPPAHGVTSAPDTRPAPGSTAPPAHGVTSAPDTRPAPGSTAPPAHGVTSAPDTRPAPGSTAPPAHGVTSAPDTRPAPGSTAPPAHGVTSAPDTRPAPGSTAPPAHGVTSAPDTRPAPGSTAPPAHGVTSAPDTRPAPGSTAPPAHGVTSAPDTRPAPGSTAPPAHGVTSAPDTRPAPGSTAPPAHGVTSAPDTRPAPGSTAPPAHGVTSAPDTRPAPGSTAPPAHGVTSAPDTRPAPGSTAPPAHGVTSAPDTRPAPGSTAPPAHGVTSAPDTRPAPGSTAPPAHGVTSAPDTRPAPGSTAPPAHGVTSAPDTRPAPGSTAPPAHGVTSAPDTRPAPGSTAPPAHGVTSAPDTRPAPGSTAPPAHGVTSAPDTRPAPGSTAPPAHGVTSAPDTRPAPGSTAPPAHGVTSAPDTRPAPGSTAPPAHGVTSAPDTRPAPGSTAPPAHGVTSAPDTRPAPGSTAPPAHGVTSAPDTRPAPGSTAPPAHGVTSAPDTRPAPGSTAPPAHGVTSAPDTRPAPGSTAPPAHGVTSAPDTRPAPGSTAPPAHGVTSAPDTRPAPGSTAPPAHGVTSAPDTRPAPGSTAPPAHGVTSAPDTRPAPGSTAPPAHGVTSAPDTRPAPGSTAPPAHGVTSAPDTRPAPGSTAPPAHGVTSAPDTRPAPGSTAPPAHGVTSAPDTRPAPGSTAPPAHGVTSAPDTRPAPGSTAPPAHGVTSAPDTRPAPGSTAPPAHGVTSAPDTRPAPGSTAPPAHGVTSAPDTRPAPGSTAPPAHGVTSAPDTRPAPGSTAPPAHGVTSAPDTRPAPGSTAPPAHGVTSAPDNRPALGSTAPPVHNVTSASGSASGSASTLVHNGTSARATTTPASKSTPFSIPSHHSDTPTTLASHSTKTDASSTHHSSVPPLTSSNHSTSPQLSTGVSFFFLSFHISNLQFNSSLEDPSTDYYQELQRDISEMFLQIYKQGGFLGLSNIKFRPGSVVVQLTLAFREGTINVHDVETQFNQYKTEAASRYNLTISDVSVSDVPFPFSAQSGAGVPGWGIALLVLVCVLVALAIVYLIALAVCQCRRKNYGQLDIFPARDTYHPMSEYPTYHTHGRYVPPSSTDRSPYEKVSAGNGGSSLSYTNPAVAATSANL

B1: humanized antibody PankoMab (with Fab glycosylation) (antibody, human IgG1, kappa)
heavy: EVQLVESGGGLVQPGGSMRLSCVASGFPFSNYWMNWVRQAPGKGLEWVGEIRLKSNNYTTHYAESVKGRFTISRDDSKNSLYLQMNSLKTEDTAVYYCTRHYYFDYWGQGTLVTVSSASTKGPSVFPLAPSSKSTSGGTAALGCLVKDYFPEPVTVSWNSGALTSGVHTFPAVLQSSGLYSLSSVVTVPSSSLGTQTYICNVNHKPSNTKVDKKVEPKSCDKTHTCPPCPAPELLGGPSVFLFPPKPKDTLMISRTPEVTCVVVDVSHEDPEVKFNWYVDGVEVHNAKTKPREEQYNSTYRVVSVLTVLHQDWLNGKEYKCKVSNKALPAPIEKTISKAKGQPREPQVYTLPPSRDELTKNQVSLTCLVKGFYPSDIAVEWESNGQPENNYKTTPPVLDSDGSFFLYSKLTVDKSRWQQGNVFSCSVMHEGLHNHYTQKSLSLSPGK
light: DIVMTQSPLSNPVTPGEPASISCRSSKSLLHSNGITYFFWYLQKPGQSPQLLIYQMSNLASGVPDRFSGSGSGTDFTLRISRVEAEDVGVYYCAQNLELPPTFGQGTKVEIKRTVAAPSVFIFPPSDEQLKSGTASVVCLLNNFYPREAKVQWKVDNALQSGNSQESVTEQDSKDSTYSLSSTLTLSKADYEKHKVYACEVTHQGLSSPVTKSFNRGEC
modifications: N-glycan on Asn54 (Kabat/EU numbering; amino acid position 57) in CDR-H2
notes: IgG1 kappa made in NM-H9D8 cells (for the FcγRIIIa assay also in NM-H9D8-E6Q12, low fucose); also called PM; PankoMab-GEX®
B1 was tested, and the “EC50 (read off the curve)” value [1] was about 300 ng/mL, the Ka [2] was 1.2e+07 M⁻¹ and the “EC50 (read off the curve)” value [3] was about 3 ng/mL. It also gave a Ka [4] of 3e+07 M⁻¹.

B2: PankoMab N54D (antibody, V domains shown)
VH: EVQLVESGGGLVQPGGSMRLSCVASGFPFSNYWMNWVRQAPGKGLEWVGEIRLKSNDYTTHYAESVKGRFTISRDDSKNSLYLQMNSLKTEDTAVYYCTRHYYFDYWGQGTLVTVSS
VL: DIVMTQSPLSNPVTPGEPASISCRSSKSLLHSNGITYFFWYLQKPGQSPQLLIYQMSNLASGVPDRFSGSGSGTDFTLRISRVEAEDVGVYYCAQNLELPPTFGQGTKVEIKR
notes: Light chain unchanged; also called PM-N54D
In the case of B2, the “EC50 (read off the curve)” value [3] is reported as about 4 ng/mL.

B3: humanized antibody PankoMab N54Q (without Fab glycosylation) (antibody, human IgG1, kappa)
heavy: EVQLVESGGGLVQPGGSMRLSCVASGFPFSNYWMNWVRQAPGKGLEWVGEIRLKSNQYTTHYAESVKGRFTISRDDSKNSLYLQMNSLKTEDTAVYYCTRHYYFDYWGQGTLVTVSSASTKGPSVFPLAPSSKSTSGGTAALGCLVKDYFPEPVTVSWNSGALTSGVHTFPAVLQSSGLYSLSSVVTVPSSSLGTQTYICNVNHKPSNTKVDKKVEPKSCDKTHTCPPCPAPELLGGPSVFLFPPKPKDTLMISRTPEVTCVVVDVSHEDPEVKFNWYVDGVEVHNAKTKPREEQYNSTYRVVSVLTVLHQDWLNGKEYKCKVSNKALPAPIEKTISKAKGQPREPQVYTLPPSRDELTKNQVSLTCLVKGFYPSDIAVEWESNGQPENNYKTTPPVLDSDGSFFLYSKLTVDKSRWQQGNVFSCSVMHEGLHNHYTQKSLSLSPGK
light: B1 light
notes: IgG1 kappa; Made in NM-H9D8 cells (for the FcγRIIIa assay also in NM-H9D8-E6Q12, low fucose); also called PM-N54Q; PM N54Q w/o Fab glyc
With B3 the “EC50 (read off the curve)” value [1] was about 100 ng/mL, the Ka [2] was 3.4e+07 M⁻¹ and the “fold higher binding than PankoMab-GEX®” value [5] was over 2.5 fold. The “EC50 (read off the curve)” value [3] was about 2 ng/mL and the Ka [4] was 7.8e+07 M⁻¹.
